Data taken from patent US20090325867A1, “RECEPTOR-SPECIFIC TUMOUR NECROSIS FACTOR-RELATED APOPTOSIS-INDUCING LIGAND (TRAIL) VARIANTS” (MEDICAL RESEARCH COUNCIL, priority 2005, published 2009).
“Also recorded” adds a separate entry of the source.

B1: TRAIL.R1-5: 6His TRAIL 95-281 with 193Ser, 199Val, 201Arg, 213Trp and 215Asp (protein)
chain: TSEETISTVQEKQQNISPLVRERGPQRVAAHITGTRGRSNTLSSPNSKNEKALGRKINSWESSRSGHSFLSNLHLRNGELVIHEKGFYYIYSQTYFRFSEEIKEVTRNDKQMVQYIYKWTDYPDPILLMKSARNSCWSKDAEYGLYSIYQGGIFELKENDRIFVSVTNEHLIDMDHEASFFGAFLVG
modifications: biotin (site not stated) in the DISC analysis only; not biotinylated in the apoptosis assays
notes: 6His TRAIL 95-281 with 193Ser, 199Val, 201Arg, 213Trp and 215Asp
B2: HGS-ETR2 (antibody, INN chains, looked up, V domains shown)
VH: EVQLVQSGGGVERPGGSLRLSCAASGFTFDDYGMSWVRQAPGKGLEWVSGINWNGGSTGYADSVKGRVTISRDNAKNSLYLQMNSLRAEDTAVYYCAKILGAGRGWYFDLWGKGTTVTVSS
VL: SSELTQDPAVSVALGQTVRITCQGDSLRSYYASWYQQKPGQAPVLVIYGKNNRPSGIPDRFSGSSSGNTASLTITGAQAEDEADYYCNSRDSSGNHVVFGGGTKLTVL

Assays:
Jurkat cells = experiment: Apoptosis by phosphatidylserine (PS) externalization in Jurkat cells; format: cell-based; conditions: for inhibition of induced apoptosis by TRAIL-R1 blocking Ab: 30 min pre-incubation with Ab (5 μg ml^−1); for ability to induce apoptosis in Jurkat cells (in words): PS externalization, compared with wt TRAIL
Procedure: Cells were also exposed to HGS-ETR1 or HGSETR2 (1 μg ml^−1). C: Ramos or Jurkat cells were pre-incubated for 30 min either alone or with TRAIL-R1 blocking Ab or TRAIL-R2 neutralizing Ab (5 μg ml^−1). […] D: Ramos and Jurkat cells were exposed to wt TRAIL or TRAIL mutants as described above and processing of caspase-3 and -8 determined by Western blot analysis. The asterisk indicates a non-specific band. The lower panel of the blot for detection of the caspase-8 p18 subunit was exposed for twice as long as the upper panel. Apoptosis was assessed by phosphatidylserine externalization and results expressed as the Means±SEM of at least 3 separate determinations. […]
(§1) Apoptosis was quantified by phosphatidylserine (PS) externalization in the presence of propidium iodide as described (MacFarlane et al., 2002 ibid.). Samples for Western blot analysis were prepared and caspase processing detected as described (Inoue et al., 2004 ibid.; MacFarlane et al., 2005 ibid.).
(§2) Ramos and Jurkat T cells (clone E6-1) were cultured as described (MacFarlane et al, 2005 ibid.). The breast tumour cell line, MCF-7 (clone F43) was cultured as described previously (MacFarlane et al., 2000 J. Cell Biol. 148, 1239-1254). Cells were cultured for either 4 h (Ramos and Jurkat) or 6 h (MCF-7) with His-TRAIL (MacFarlane et al, 1997 J Biol Chem 272, 25417-25420), HGS-ETR1 or HGS-ETR2 (Human Genome Sciences), or a mutant form of His-TRAIL (MacFarlane et al, 2005 ibid.). Samples were analyzed for apoptosis, Western blotting, or TRAIL DISC activation as described (MacFarlane et al, 2005 ibid.; MacFarlane et al. 2002 Oncogene 21, 6809-6818). Mutants of His-TRAIL (residues 95-281) were generated using the Quik-Change site-directed mutagenesis kit (Stratagene, Calif.), confirmed by DNA sequencing, expressed in E. coli and purified as described (MacFarlane et al, 1997 ibid.). For siRNA targeting of TRAIL-R1/-R2, MCF-7 cells were seeded into six-well plates immediately prior to effectene-mediated RNAi transfection with either a negative control siRNA (30 nM, Ambion, #4611), or preannealed siRNA oligonucleotides for TRAIL-R1 or TRAIL-R2 (30 nM, Ambion), with the sequence and validity described (Ren et al, 2004 Mol. Biol. Cell vol 15 pp 5064-5074). After 40 h of transfection the cells were collected and total TRAIL-R1 or TRAIL-R2 levels assessed. Where indicated, RNAi transfected MCF-7 cells were either left untreated or exposed to wt-TRAIL and apoptosis assessed by the extent of Bax activation, determined using the conformation specific Bax MAb, clone 3 (Dewson et al, 2003 Oncogene vol 22 pp 2643-54).

primary MCL cells = experiment: Apoptosis in freshly isolated primary MCL cells with or without depsipeptide pre-treatment; format: cell-based, human; conditions: pre-treatment 16 h with depsipeptide (5 nM), depsipeptide alone 35.4±5%
Procedure: Cell lines were also pre-incubated for 30 min with a TRAIL-R1 blocking Ab and a TRAIL-R2 neutralizing Ab from Alexis and R&D systems, respectively, prior to exposure to TRAIL. Freshly isolated cells from patients with MCL were isolated, purified and incubated with different forms of TRAIL as described above for CLL cells. Samples were either analyzed immediately for apoptosis or stored at −80° C. for subsequent Western blotting. Other methods and reagents were as described (Inoue (2004 Cell Death Differ 11 Suppl 2, S193-206); MacFarlane et al., 2005 ibid).
as §1
We also obtained three samples from patients with mantle cell lymphoma (MCL), an incurable and aggressive disease that accounts for ˜6% of all non-Hodgkin's lymphoma. There are no standard treatments for MCL and the prognosis is very poor particularly for the blastoid variant. MCL cells were isolated and exposed to the different forms of TRAIL after pre-treatment for 16 h with depsipeptide (5 nM).

[1] = tested on: TRAIL DISC in Ramos cells; experiment: DISC analysis with biotinylated TRAIL in Ramos cells; format: cell-based; conditions: biotinylated ligand 500 ng ml^−1, 30 min
Procedure: (§3) After exposure of the cells for 30 min, DISC complexes were isolated and analyzed for the indicated proteins by Western blotting. To provide an unstimulated receptor control (u/s), biotinylated wt or mutant TRAIL was added to lysate from untreated cells. C: Freshly isolated cells from patients with CLL were incubated for 16 h either alone or in the presence of depsipeptide (10 nM). […] The different symbols used indicate data from six individual patients and the solid line indicates the Mean.
(§4) Ramos or Jurkat cells (5×10^7 cells per treatment) were exposed to biotin-tagged recombinant His-TRAIL (biotinylated TRAIL) or one of its mutant forms (500 ng ml^−1) for 30 min and then DISC formation assessed as described previously (MacFarlane et al., 2002 ibid.).

[2] = molecular target: T1, MCF-7 cells (Homo sapiens); experiment: TRAIL DISC activation in MCF-7 cells; format: cell-based; conditions: FIG. 5B
T1 construct: the breast tumour cell line MCF-7 signals to apoptosis via TRAIL-R1; endogenous in cells; host or cells: MCF-7 (clone F43)
Procedure: as §2, with “For siRNA targeting of TRAIL-R1/-R2, MCF-7 cells were seeded into six-well plates immediately prior to effectene-mediated RNAi transfection with either a negative control siRNA (30 nM, Ambion, #4611), or preannealed siRNA oligonucleotides for TRAIL-R1 or TRAIL-R2 (30 nM, Ambion), with the sequence and validity described (Ren et al, 2004 Mol. Biol. Cell vol 15 pp 5064-5074).” left out
Apoptosis was quantified by measuring the processing of Caspase-8, Caspase-7 and PARP by Western blot analysis. […]

[3] = tested on: TRAIL DISC in Jurkat cells; experiment: DISC analysis with biotinylated TRAIL in Jurkat cells; format: cell-based; conditions: biotinylated ligand 500 ng ml^−1, 30 min
Procedure: as §3, §4

[4] = molecular target: TRAIL receptor 2 (TRAIL-R2) (Homo sapiens (Human)) (UniProt O14763)

Molecule | inhibition of induced apoptosis by TRAIL-R1 blocking Ab (Jurkat cells) | concentration-response of apoptosis compared with wt TRAIL (Jurkat cells; 4 h, FIG. 1A) | % PS+ cells, Jurkat (Jurkat cells; 4 h exposure, 500 ng ml^−, Mean ± SEM of at least three determinations) [%] | ability to induce apoptosis in Jurkat cells (in words) (Jurkat cells) | apoptosis, ligand or antibody after depsipeptide pre-treatment (primary MCL cells) [%] | DISC formation: receptor bound, FADD and caspase-8 recruitment [1] | recruitment and processing of Caspase-8 at the DISC [2] | DISC formation: receptor bound, FADD and caspase-8 recruitment [3] | apoptosis of primary MCL cells after depsipeptide (5 nM, 16 h) [4] [%]
B1 | blocked | much less active than wt TRAIL | 20.0 ± 2.3 | lost much of its activity; also recorded: low levels of apoptosis | 54.3±9.1 | bound predominantly TRAIL-R1 together with a small amount of TRAIL-R2 | resulted in recruitment and processing Caspase-8 at the DISC | bound small amounts of both TRAIL-R1 and -R2 | 
B2 | not |  |  | potently induced apoptosis | 38.3±4.3 |  |  |  | 38.3
